# T1: CEA (Homo sapiens, UniProt P06731)
# T1 sequence (P06731 35-702): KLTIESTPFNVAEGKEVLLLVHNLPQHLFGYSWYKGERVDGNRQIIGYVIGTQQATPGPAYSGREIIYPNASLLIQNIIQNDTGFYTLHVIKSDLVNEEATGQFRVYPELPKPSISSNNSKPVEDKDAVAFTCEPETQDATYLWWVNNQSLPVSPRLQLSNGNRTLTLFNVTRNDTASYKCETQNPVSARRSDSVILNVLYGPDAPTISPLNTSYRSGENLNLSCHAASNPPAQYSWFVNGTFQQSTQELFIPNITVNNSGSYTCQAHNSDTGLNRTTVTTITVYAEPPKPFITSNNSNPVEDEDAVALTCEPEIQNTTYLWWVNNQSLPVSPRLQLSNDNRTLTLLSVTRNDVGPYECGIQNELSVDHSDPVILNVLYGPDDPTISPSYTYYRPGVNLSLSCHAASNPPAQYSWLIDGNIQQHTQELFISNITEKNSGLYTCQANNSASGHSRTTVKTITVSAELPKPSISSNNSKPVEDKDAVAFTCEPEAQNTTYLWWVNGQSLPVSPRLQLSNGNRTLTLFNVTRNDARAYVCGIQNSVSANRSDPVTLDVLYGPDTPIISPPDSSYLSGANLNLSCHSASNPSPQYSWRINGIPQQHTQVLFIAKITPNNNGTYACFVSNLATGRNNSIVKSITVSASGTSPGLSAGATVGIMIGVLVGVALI
# Key:
# CEA [1] = molecular target: T1, CEA; assay: CEA binding of radiolabelled product on CEA/Sepharose column
# Experimental: 75 μg of A5-SC and MFE-23 were iodinated with 0.5 mCi of 125-I using the Chloramine T/L-Tyrosine method^20. […] The stability of the radiolabelled products was tested by gel filtration on S-100.
# MFE-cys was radiolabelled with ^99m Tc using a ^99m Tc-D-glucarate transfer method^22. 1 ml of ^99m Tc sodium pertechnetate (40.5 mCi) was added to 12.5 mg of monopotassium D-glucarate, 16.8 mg of sodium bicarbonate and 100 μg of stannous chloride (stannous chloride was made up directly before use at a concentration of 0.2 mg/ml). This solution was left for 1 min at room temperature. Then 0.5 ml was mixed with 200 μg MFE-cys in PBS/1 mM EDTA. The mixture was incubated at room temperature for 30 min and then applied to a PD 10 column (Pharmacia; primed with 3% human serum albumin in PBS) to separate the radiolabelled protein from the free pertechnetate. The efficiency of ^99m Tc uptake was tested by thin layer chromatography, using acetonitrile/water (30:20) as running solvent. An aliquot (100 μl) of diluted radiolabelled scFv (1:30 in PBS/Tween 20) was applied to a 1 ml CEA-sepharose column, containing 1 mg of CEA, to test CEA-binding. The column was washed with 8 volumes of PBS/0.05% Tween 20 and bound material was obtained by adding 3M ammoniumthiocyanate. Further, the stability of the labelled scFv was tested by applying the product (diluted 1:30) to Sephacryl S-100. To test the stability of the radiolabelled product in vivo serum taken from mice injected with the labelled scFv 24 h after administration was also applied to Sephacryl S-100. Stability of the ^99m Tc-labelled product was also tested by gel autoradiography as follows: radiolabelled MFE-cys was subjected to SDS-PAGE using a 15% non-reducing acrylamide gel. The protein was then Western blotted onto Immobilon P (Millipore), and visualised by autoradiography using Kodak X-Omatic cassette and Hyperfilm-MP film (Amersham).
# Thin layer chromatography (TLC) was performed to measure % ^125 I incorporation. Antigen binding was also assessed by applying a dilution of the radiolabel to a CEA coupled Sepharose 4B (1 mg CEA; 1 ml column volume). The unbound fraction was washed through with 2 column volumes of PBS and the bound fraction with the same volume of 3M ammonium thiocyanate. A control scFv B1.8 which is not specific for CEA and MFE-23 containing a c-myc tag (MFE-23 myc) were tested as a comparison. The unbound and bound fractions were analysed for ^125 I activity using a gamma counter. Stability assessments were carried out by applying a sample of the radiolabel and unlabelled product to a 15% SDS PAGE minigel. The ^125 I-MFE-23 His was visualised by autoradiography and the unlabelled product by Coomassie blue staining. ^125 I-MFE-23 His was also applied to a 100 ml Sephacryl S-100 column (115×1 cm). 1.5 ml fractions were collected and counted for ^125 I activity.
# [2] = Pyrogen test by injection into rabbits; type: in vivo; conditions: final product, three times the patient dose
# Experimental: (§1) Samples at each purification stage were analysed for endotoxin levels using Limulus ameobocyte lysate (LAL) gel clot vials (Atlas bioscan. Bognor Regis, UK) according to the manufacturers' recommended instructions; a further aliquot (three times the patient dose) was tested by injection into rabbits (Safepharm Laboratories; Derby, UK) Bacterial supernatant containing MFE-23 His, semipurified MFE-23 His and the final product were tested for the presence of bacterial DNA using the Digoxigenin (DIG) DNA labelling and detection assay (Boeringer Mannheim, Lewes, UK). A probe was constructed using a mixture of equal proportions of MFE-23 plasmid DNA and total bacterial DNA. DIG labelled DNA probes were detected after hybridisation. to target samples by enzyme-linked immunoassay using an anti-DIG alkaline phosphatase conjugate. The probe was sensitive to 12 pg of DNA. […] Stability of the antibody was assessed by storing aliquots at 4° C. and -70° C. and subsequently analysing samples at certain time intervals using a Superose 12 HR 10/30 (Pharmacia) FPLC column. Retention of antigen binding following 6 months storage at 4° C. was measured by applying a known amount of purified antibody to the CEA affinity column (refer to section 2.7) and quantitating the % bound (specific activity). […]
# CEA [3] = molecular target: T1, CEA; assay: Retention of antigen binding on storage (CEA affinity column, specific activity); design: CEA was obtained from a patient's colorectal tumour liver metastasis by extraction using perchloric acid; from tissue; host or cells: patient's colorectal tumour liver metastasis, perchloric acid extract
# Experimental: 2 liters of MFE-23 His which had been concentrated and dialysed in PBS (400 ml) was purified using a 6 ml cyanogen bromide activated Sepharose 4B (Pharmacia Biotech.) affinity column coupled to CEA (8 mg). CEA was obtained from a patient's colorectal tumour liver metastasis by extraction using perchloric acid^34. One column pass of 30 ml supernatant per run was performed.
# Samples at each purification stage were analysed for endotoxin levels using Limulus ameobocyte lysate (LAL) gel clot vials (Atlas bioscan. Bognor Regis, UK) according to the manufacturers' recommended instructions; a further aliquot (three times the patient dose) was tested by injection into rabbits (Safepharm Laboratories; Derby, UK) Bacterial supernatant containing MFE-23 His, semipurified MFE-23 His and the final product were tested for the presence of bacterial DNA using the Digoxigenin (DIG) DNA labelling and detection assay (Boeringer Mannheim, Lewes, UK). A probe was constructed using a mixture of equal proportions of MFE-23 plasmid DNA and total bacterial DNA. DIG labelled DNA probes were detected after hybridisation. to target samples by enzyme-linked immunoassay using an anti-DIG alkaline phosphatase conjugate. The probe was sensitive to 12 pg of DNA. The final product was also assayed for Cu^2+ content and compared with earlier purification stages, using flame photometry (Trace Element laboratory-University of Surrey). An aliquot was also protein sequenced using amino acid analysis by the CRC protein sequencing facility (University college of London) to confirm homogeneity of the final product and cleavage of the pelB leader sequence in the periplasm. Stability of the antibody was assessed by storing aliquots at 4° C. and -70° C. and subsequently analysing samples at certain time intervals using a Superose 12 HR 10/30 (Pharmacia) FPLC column. Retention of antigen binding following 6 months storage at 4° C. was measured by applying a known amount of purified antibody to the CEA affinity column (refer to section 2.7) and quantitating the % bound (specific activity). These values were compared by applying a known amount of MFE-23 His previously purified using the same column.
# [4] = Storage stability by FPLC (Superose 12); type: physicochemical; conditions: 4° C. and -70° C. up to 6 months
# Experimental: as §1
# [5] = Stability of radiolabelled product by gel filtration on S-100 / SDS PAGE; type: physicochemical; conditions: 125I label, SDS PAGE and gel filtration
molecule,measurement,setting,value
"MFE-23 His: MFE-23 scFv with hexa-histidine tail at the C-terminus, clinical grade (protein) scFv: QVKLQQSGAELVRSGTSVKLSCTASGFNIKDSYMHWLRQGPEQGLEWIGWIDPENGDTEYAPKFQGKATFTTDTSSNTAYLQLSSLTSEDTAVYYCNEGTPTGPYYFDYWGQGTTVTVSSGGGGSGGGGSGGGGSENVLTQSPAIMSASPGEKVTITCSASSSVSYMHWFQQKPGTSPKLWIYSTSNLASGVPARFSGSGSGTSYSLTISRMEAEDAATYYCQQRSSYPLTFGAGTKLELK","counts in bound fraction of CEA column, % of total counts recovered","CEA [1]; 125I radiolabelled, Example 5",75%
same,"counts in unbound fraction of CEA column, % of total counts recovered","CEA [1]; 125I radiolabelled, Example 5",25%
same,further counts recovered in bound fraction on reapplying the unbound fraction,"CEA [1]; % of total counts loaded, unbound fraction reapplied to CEA column",58%
same,antigen binding retained after radiolabelling,CEA [1]; after radiolabelling (125I),> 75%
same,pyrogenicity by in vivo rabbit testing,[2],non pyrogenic
same,antigen binding retained after storage,CEA [3]; 6 months storage at 4° C.,84%
same,Specific activity (% bound to CEA column),"CEA [3]; CEA antigen affinity chromatography purified (d), 1 mg applied to column",89%
same,Specific activity (% bound to CEA column),"CEA [3]; IMAC purified (a), 2 mg applied to column, 6 months storage at 4° C.",69%
same,Specific activity (% bound to CEA column),"CEA [3]; IMAC purified (b), 1 mg applied to column, 6 months storage at 4° C.",75%
same,Specific activity (% bound to CEA column),"CEA [3]; IMAC purified (c), 0.5 mg applied to column, 6 months storage at 4° C.",81%
same,mean % bound specific activity,CEA [3]; IMAC purified material (a-c),75%
same,"stability on storage, FPLC analysis",[4],no evidence of aggregation
same,stability of radiolabelled product,[5],"monomeric, intact and unaggregated"
